Results reported in patent US20250197467A1.
Like-named read-outs stand apart in the source and are kept apart here.

How the values were obtained:
[1] = molecular target: Composition E, MMP9-treated (Homo sapiens (Human)) (UniProt Q14116)
[2] = molecular target: Composition S (Homo sapiens (Human)) (UniProt Q14116)
[3] = molecular target: C086 (SEQ ID NO: 30) (Homo sapiens (Human)) (UniProt Q14116); test: cell-based or functional assay
[4] = molecular target: C143 (human) (UniProt Q14116); test: cell-based or functional assay
Sequence of C143 (human) (Q14116 other isoform, or with tags, fused parts or gaps): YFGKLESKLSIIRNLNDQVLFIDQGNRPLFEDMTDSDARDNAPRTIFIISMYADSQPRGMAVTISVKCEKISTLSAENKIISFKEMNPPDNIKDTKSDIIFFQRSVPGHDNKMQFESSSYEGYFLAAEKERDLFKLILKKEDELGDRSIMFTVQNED

[5] = molecular target: C144 (human) (UniProt Q14116); test: cell-based or functional assay
[6] = molecular target: C145 (human) (UniProt Q14116); test: cell-based or functional assay
[7] = molecular target: C146 (Homo sapiens (Human)) (UniProt Q14116); test: cell-based or functional assay
[8] = molecular target: C147 (human) (UniProt Q14116); test: cell-based or functional assay
[9] = molecular target: C148 (human) (UniProt Q14116); test: cell-based or functional assay
Sequence of C148 (human) (Q14116 other isoform, or with tags, fused parts or gaps): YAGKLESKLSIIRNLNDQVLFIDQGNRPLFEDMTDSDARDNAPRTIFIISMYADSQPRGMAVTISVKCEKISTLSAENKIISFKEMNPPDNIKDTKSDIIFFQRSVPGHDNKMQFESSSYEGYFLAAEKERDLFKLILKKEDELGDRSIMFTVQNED

[10] = molecular target: C149 (human) (UniProt Q14116); test: cell-based or functional assay
[11] = molecular target: C150 (human) (UniProt Q14116); test: cell-based or functional assay
[12] = molecular target: C151 (human) (UniProt Q14116); test: cell-based or functional assay
[13] = molecular target: C152 (human) (UniProt Q14116); test: cell-based or functional assay
[14] = molecular target: C153 (human) (UniProt Q14116); test: cell-based or functional assay
Sequence of C153 (human) (Q14116 other isoform, or with tags, fused parts or gaps): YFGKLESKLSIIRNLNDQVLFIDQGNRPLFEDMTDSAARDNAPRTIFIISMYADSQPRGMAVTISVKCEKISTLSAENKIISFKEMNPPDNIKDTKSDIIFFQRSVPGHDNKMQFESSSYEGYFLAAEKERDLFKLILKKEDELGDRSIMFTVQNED

[15] = molecular target: C154 (human) (UniProt Q14116); test: cell-based or functional assay
[16] = molecular target: C155 (human) (UniProt Q14116); test: cell-based or functional assay
[17] = molecular target: C156 (human) (UniProt Q14116); test: cell-based or functional assay
Sequence of C156 (human) (Q14116 other isoform, or with tags, fused parts or gaps): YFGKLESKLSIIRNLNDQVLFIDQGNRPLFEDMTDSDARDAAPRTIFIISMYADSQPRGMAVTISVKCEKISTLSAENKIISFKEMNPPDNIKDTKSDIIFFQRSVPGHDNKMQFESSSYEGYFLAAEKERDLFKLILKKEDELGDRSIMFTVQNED

[18] = molecular target: C157 (human) (UniProt Q14116); test: cell-based or functional assay
[19] = molecular target: C158 (human) (UniProt Q14116); test: cell-based or functional assay
[20] = molecular target: C159 (human) (UniProt Q14116); test: cell-based or functional assay
[21] = molecular target: C160 (human) (UniProt Q14116); test: cell-based or functional assay
[22] = molecular target: C161 (human) (UniProt Q14116); test: cell-based or functional assay
[23] = molecular target: C162 (human) (UniProt Q14116); test: cell-based or functional assay
[24] = molecular target: C163 (human) (UniProt Q14116); test: cell-based or functional assay
[25] = molecular target: C164 (human) (UniProt Q14116); test: cell-based or functional assay
Sequence of C164 (human) (Q14116 other isoform, or with tags, fused parts or gaps): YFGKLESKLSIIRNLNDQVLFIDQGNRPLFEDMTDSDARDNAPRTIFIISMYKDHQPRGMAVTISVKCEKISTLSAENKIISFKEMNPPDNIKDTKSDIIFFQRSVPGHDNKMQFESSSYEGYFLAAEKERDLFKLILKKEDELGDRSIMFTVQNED

[26] = molecular target: C165 (human) (UniProt Q14116); test: cell-based or functional assay
Sequence of C165 (human) (Q14116 other isoform, or with tags, fused parts or gaps): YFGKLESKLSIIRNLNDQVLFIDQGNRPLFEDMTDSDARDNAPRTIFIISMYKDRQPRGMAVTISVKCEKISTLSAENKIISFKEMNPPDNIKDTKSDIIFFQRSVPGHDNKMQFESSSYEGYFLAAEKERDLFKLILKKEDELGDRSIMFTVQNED

[27] = molecular target: C166 (human) (UniProt Q14116); test: cell-based or functional assay
[28] = molecular target: C167 (human) (UniProt Q14116); test: cell-based or functional assay
Sequence of C167 (human) (Q14116 other isoform, or with tags, fused parts or gaps): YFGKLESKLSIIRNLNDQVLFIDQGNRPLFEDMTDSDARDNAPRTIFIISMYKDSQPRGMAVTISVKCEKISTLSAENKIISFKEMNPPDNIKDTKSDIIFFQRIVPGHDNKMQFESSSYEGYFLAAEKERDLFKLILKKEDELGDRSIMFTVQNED

[29] = molecular target: C168 (human) (UniProt Q14116); test: cell-based or functional assay
[30] = molecular target: C190 (Homo sapiens (Human)) (UniProt Q14116); test: cell-based or functional assay
[31] = molecular target: IL-18 WT (SEQ ID NO: 1) (human) (UniProt Q14116); test: cell-based or functional assay
Sequence of IL-18 WT (SEQ ID NO: 1) (human) (Q14116 37-193): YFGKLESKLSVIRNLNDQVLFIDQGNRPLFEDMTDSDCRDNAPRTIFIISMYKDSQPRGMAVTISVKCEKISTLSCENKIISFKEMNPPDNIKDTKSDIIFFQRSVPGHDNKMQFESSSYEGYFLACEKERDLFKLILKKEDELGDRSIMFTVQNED

[32] = molecular target: SEQ ID NO 34 (Homo sapiens (Human)) (UniProt Q14116); test: cell-based or functional assay
[33] = molecular target: SEQ ID NO 35 (Homo sapiens (Human)) (UniProt Q14116); test: cell-based or functional assay
Sequence of SEQ ID NO 35 (Homo sapiens (Human)) (Q14116 other isoform, or with tags, fused parts or gaps): as the sequence (Q14116 37-193) above, with Y1G, F2A, E6K, M51G, K53A, D54A, S55A, T63A counted along it

[34] = molecular target: SEQ ID NO 36 (Homo sapiens (Human)) (UniProt Q14116); test: cell-based or functional assay
[35] = molecular target: SEQ ID NO 37 (Homo sapiens (Human)) (UniProt Q14116); test: cell-based or functional assay
Sequence of SEQ ID NO 37 (Homo sapiens (Human)) (Q14116 37-193 S91A): as the sequence (Q14116 37-193) above, with S55A counted along it

[36] = molecular target: SEQ ID NO 38 (Homo sapiens (Human)) (UniProt Q14116); test: cell-based or functional assay
[37] = molecular target: SEQ ID NO 39 (Homo sapiens (Human)) (UniProt Q14116); test: cell-based or functional assay
[38] = molecular target: SEQ ID NO 4 (Homo sapiens (Human)) (UniProt Q14116); test: cell-based or functional assay
Sequence of SEQ ID NO 4 (Homo sapiens (Human)) (Q14116 other isoform, or with tags, fused parts or gaps): as the sequence (Q14116 37-193) above, with E6K, C38A, K53A, C68A, M86C counted along it

[39] = molecular target: SEQ ID NO 40 (Homo sapiens (Human)) (UniProt Q14116); test: cell-based or functional assay
Sequence of SEQ ID NO 40 (Homo sapiens (Human)) (Q14116 other isoform, or with tags, fused parts or gaps): as the sequence (Q14116 37-193) above, with E6K, S55A counted along it

[40] = molecular target: SEQ ID NO 41 (Homo sapiens (Human)) (UniProt Q14116); test: cell-based or functional assay
[41] = molecular target: SEQ ID NO 42 (Homo sapiens (Human)) (UniProt Q14116); test: cell-based or functional assay
[42] = molecular target: SEQ ID NO 43 (Homo sapiens (Human)) (UniProt Q14116); test: cell-based or functional assay
[43] = molecular target: SEQ ID NO 46 (Homo sapiens (Human)) (UniProt Q14116); test: cell-based or functional assay
[44] = molecular target: SEQ ID NO 47 (Homo sapiens (Human)) (UniProt Q14116); test: cell-based or functional assay
[45] = molecular target: SEQ ID NO 48 (Homo sapiens (Human)) (UniProt Q14116); test: cell-based or functional assay
[46] = molecular target: SEQ ID NO 5 (Homo sapiens (Human)) (UniProt Q14116); test: cell-based or functional assay
[47] = molecular target: SEQ ID NO 50 (Homo sapiens (Human)) (UniProt Q14116); test: cell-based or functional assay
[48] = molecular target: SEQ ID NO 51 (Homo sapiens (Human)) (UniProt Q14116); test: cell-based or functional assay
[49] = molecular target: SEQ ID NO 52 (Homo sapiens (Human)) (UniProt Q14116); test: cell-based or functional assay
[50] = molecular target: SEQ ID NO 53 (Homo sapiens (Human)) (UniProt Q14116); test: cell-based or functional assay
[51] = molecular target: SEQ ID NO 54 (Homo sapiens (Human)) (UniProt Q14116); test: cell-based or functional assay
Sequence of SEQ ID NO 54 (Homo sapiens (Human)) (Q14116 other isoform, or with tags, fused parts or gaps): as the sequence (Q14116 37-193) above, with E6K, C38S, K53A, C68S, K70C, C76S, C127S counted along it

[52] = molecular target: SEQ ID NO 55 (Homo sapiens (Human)) (UniProt Q14116); test: cell-based or functional assay
[53] = molecular target: SEQ ID NO 57 (Homo sapiens (Human)) (UniProt Q14116); test: cell-based or functional assay
[54] = molecular target: SEQ ID NO 59 (Homo sapiens (Human)) (UniProt Q14116); test: cell-based or functional assay
[55] = molecular target: SEQ ID NO 6 (Homo sapiens (Human)) (UniProt Q14116); test: cell-based or functional assay
[56] = molecular target: SEQ ID NO 60 (Homo sapiens (Human)) (UniProt Q14116); test: cell-based or functional assay
[57] = molecular target: SEQ ID NO 62 (Homo sapiens (Human)) (UniProt Q14116); test: cell-based or functional assay
Sequence of SEQ ID NO 62 (Homo sapiens (Human)) (Q14116 other isoform, or with tags, fused parts or gaps): as the sequence (Q14116 37-193) above, with E6K, C38A, K53A, C127A counted along it

[58] = molecular target: SEQ ID NO 9 (Homo sapiens (Human)) (UniProt Q14116); test: cell-based or functional assay
[59] = molecular target: His-tagged human IL-18BP (human) (UniProt O95998); test: AlphaLISA of free IL-18BP
Sequence of His-tagged human IL-18BP (human) (O95998 31-194): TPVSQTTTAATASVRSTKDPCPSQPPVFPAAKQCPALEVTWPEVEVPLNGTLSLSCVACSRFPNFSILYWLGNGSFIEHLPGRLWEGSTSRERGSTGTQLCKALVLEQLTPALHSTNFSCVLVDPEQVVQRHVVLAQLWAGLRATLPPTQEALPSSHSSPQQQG

[60] = molecular target: His-tagged human IL-18BP (human) (UniProt O95998); test: AlphaLISA of free IL-18BP; remark: listed apart in the source
[61] = molecular target: His-tagged human IL-18BP (human) (UniProt O95998); test: AlphaLISA of free IL-18BP (analyte titrated in assay buffer against 5 ng/ml His-tagged human IL-18BP; falling signal = IL-18BP bound)

Sequence of IL-18 WT (SEQ ID NO: 1) (Q14116 37-193): as the sequence (Q14116 37-193) above
Sequence of Fc-fused human IL-18 binding protein isoform a (IL-18BPa) (O95998 31-194 limits assumed): as the sequence (O95998 31-194) above
Sequence of Composition E, MMP9-treated (Homo sapiens (Human)) (heavy, as listed by the source, chain 1 of 3): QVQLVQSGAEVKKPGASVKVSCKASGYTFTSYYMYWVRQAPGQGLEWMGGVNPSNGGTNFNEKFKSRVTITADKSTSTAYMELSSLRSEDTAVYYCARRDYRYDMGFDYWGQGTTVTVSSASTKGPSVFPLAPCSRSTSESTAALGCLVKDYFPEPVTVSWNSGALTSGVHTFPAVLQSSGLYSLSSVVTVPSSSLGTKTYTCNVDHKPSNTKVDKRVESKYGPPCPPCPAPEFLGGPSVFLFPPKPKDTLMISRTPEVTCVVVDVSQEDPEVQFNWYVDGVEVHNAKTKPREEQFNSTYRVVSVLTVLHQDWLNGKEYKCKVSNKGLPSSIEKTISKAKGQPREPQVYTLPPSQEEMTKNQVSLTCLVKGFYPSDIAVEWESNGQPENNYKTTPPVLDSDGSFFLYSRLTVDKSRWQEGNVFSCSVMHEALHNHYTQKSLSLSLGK
Sequence of Composition E, MMP9-treated (Homo sapiens (Human)) (light, as listed by the source, chain 2 of 3): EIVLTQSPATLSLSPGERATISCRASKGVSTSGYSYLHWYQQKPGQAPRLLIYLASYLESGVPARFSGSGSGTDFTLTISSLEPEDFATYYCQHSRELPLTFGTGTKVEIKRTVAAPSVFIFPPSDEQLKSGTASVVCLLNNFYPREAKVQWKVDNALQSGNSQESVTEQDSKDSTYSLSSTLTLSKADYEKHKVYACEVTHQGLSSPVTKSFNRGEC
Sequence of Composition E, MMP9-treated (Homo sapiens (Human)) (Q14116 other isoform, or with tags, fused parts or gaps, chain 3 of 3): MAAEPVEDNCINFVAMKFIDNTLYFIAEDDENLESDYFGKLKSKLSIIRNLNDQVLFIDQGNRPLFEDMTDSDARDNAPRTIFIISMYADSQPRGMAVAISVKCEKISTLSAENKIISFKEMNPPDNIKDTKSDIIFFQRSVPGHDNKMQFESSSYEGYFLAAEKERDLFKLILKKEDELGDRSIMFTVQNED
Sequence of Composition S (Homo sapiens (Human)) (heavy, as listed by the source, chain 1 of 3): as the sequence (heavy, as listed by the source, chain 1 of 3) above
Sequence of Composition S (Homo sapiens (Human)) (light, as listed by the source, chain 2 of 3): as the sequence (light, as listed by the source, chain 2 of 3) above
Sequence of Composition S (Homo sapiens (Human)) (Q14116 other isoform, or with tags, fused parts or gaps, chain 3 of 3): as the sequence (Q14116 37-193) above, with E6K, V11I, C38A, K53A, T63A, C76A, C127A counted along it
Sequence of C086 (SEQ ID NO: 30) (Homo sapiens (Human)) (Q14116 other isoform, or with tags, fused parts or gaps): as the sequence (Q14116 37-193) above, with E6K, V11I, C38A, K53A, T63A, C76A, C127A counted along it

An IC50 (read off the curve), PD-1 positive NK-92 cells [1] of 8 nM, an IC50 (read off the curve), PD-1 negative NK-92 cells [2] of 8 nM and an IL-18BP-mediated IFNγ inhibition NK-92 assay IC50 [3] of 22.5 nM were found for “Fc-fused human IL-18 binding protein isoform a (IL-18BPa) (from UniProt O95998 31-194) (Fc fusion)” in this work. The IC50 (IL-18BP inhibition of IFNγ, NK92) [4] was 1.62 nM, the IC50 (IL-18BP inhibition of IFNγ, NK92) [5] was 7.52 nM and the IC50 (IL-18BP inhibition of IFNγ, NK92) [6] was 10.2 nM. It also gave an IC50 (IL-18BP inhibition of IFNγ, NK92) [7] of 733 nM, an IC50 (IL-18BP inhibition of IFNγ, NK92) [8] of 47.6 nM and an IC50 (IL-18BP inhibition of IFNγ, NK92) [9] of 5.05 nM. For the same substance, the IC50 (IL-18BP inhibition of IFNγ, NK92) [10] was 1.17 nM, the IC50 (IL-18BP inhibition of IFNγ, NK92) [11] was 21.3 nM and the IC50 (IL-18BP inhibition of IFNγ, NK92) [12] was 3.62 nM. It also gave an IC50 (IL-18BP inhibition of IFNγ, NK92) [13] of 7.85 nM, an IC50 (IL-18BP inhibition of IFNγ, NK92) [14] of 2.22 nM and an IC50 (IL-18BP inhibition of IFNγ, NK92) [15] of 3.71 nM. It also gave an IC50 (IL-18BP inhibition of IFNγ, NK92) [16] of 3.23 nM, an IC50 (IL-18BP inhibition of IFNγ, NK92) [17] of 0.681 nM and an IC50 (IL-18BP inhibition of IFNγ, NK92) [18] of 6.08 nM. For the same substance, the IC50 (IL-18BP inhibition of IFNγ, NK92) [19] was 3.98 nM, the IC50 (IL-18BP inhibition of IFNγ, NK92) [20] was 1.81 nM and the IC50 (IL-18BP inhibition of IFNγ, NK92) [21] was 3.18 nM. For the same substance, the IC50 (IL-18BP inhibition of IFNγ, NK92) [22] was 1.07 nM, the IC50 (IL-18BP inhibition of IFNγ, NK92) [23] was 7.29 nM and the IC50 (IL-18BP inhibition of IFNγ, NK92) [24] was 0.823 nM. For the same substance, the IC50 (IL-18BP inhibition of IFNγ, NK92) [25] was 0.456 nM, the IC50 (IL-18BP inhibition of IFNγ, NK92) [26] was 0.885 nM and the IC50 (IL-18BP inhibition of IFNγ, NK92) [27] was 0.44 nM. It also gave an IC50 (IL-18BP inhibition of IFNγ, NK92) [28] of 0.809 nM, an IC50 (IL-18BP inhibition of IFNγ, NK92) [29] of 0.176 nM and an IL-18BP-mediated IFNγ inhibition NK-92 assay IC50 [30] of 4.33 nM. For the same substance, the IC50 (IL-18BP inhibition of IFNγ, NK92) [31] was 1.47 nM, the IL-18BP-mediated IFNγ inhibition NK-92 assay IC50 [31] was 0.403 nM and the IC50 (IL-18BP inhibition of IFNγ, NK92) [32] was 229 nM. The IC50 (IL-18BP inhibition of IFNγ, NK92) [33] was > 55 nM, the IC50 (IL-18BP inhibition of IFNγ, NK92) [34] was 27.3 nM and the IC50 (IL-18BP inhibition of IFNγ, NK92) [35] was 4.46 nM. The IC50 (IL-18BP inhibition of IFNγ, NK92) [36] was 7.79 nM, the IC50 (IL-18BP inhibition of IFNγ, NK92) [37] was > 703 nM and the IC50 (IL-18BP inhibition of IFNγ, NK92) [38] was 396 nM. For the same substance, the IC50 (IL-18BP inhibition of IFNγ, NK92) [39] was 15 nM, the IC50 (IL-18BP inhibition of IFNγ, NK92) [40] was 37.3 nM and the IC50 (IL-18BP inhibition of IFNγ, NK92) [41] was 1060 nM. The IC50 (IL-18BP inhibition of IFNγ, NK92) [42] was 27.8 nM, the IC50 (IL-18BP inhibition of IFNγ, NK92) [43] was 0.189 nM and the IC50 (IL-18BP inhibition of IFNγ, NK92) [44] was 0.444 nM. The IC50 (IL-18BP inhibition of IFNγ, NK92) [45] was 0.114 nM, the IC50 (IL-18BP inhibition of IFNγ, NK92) [46] was 62.4 nM and the IC50 (IL-18BP inhibition of IFNγ, NK92) [47] was > 1000 nM. For the same substance, the IC50 (IL-18BP inhibition of IFNγ, NK92) [48] was 0.239 nM, the IC50 (IL-18BP inhibition of IFNγ, NK92) [49] was 47.1 nM and the IC50 (IL-18BP inhibition of IFNγ, NK92) [50] was 18.2 nM. The IC50 (IL-18BP inhibition of IFNγ, NK92) [51] was 23.5 nM, the IC50 (IL-18BP inhibition of IFNγ, NK92) [52] was > 1000 nM and the IC50 (IL-18BP inhibition of IFNγ, NK92) [53] was 146 nM. For the same substance, the IC50 (IL-18BP inhibition of IFNγ, NK92) [54] was 654 nM, the IC50 (IL-18BP inhibition of IFNγ, NK92) [55] was 5.85 nM and the IC50 (IL-18BP inhibition of IFNγ, NK92) [56] was 780 nM. The IC50 (IL-18BP inhibition of IFNγ, NK92) [57] was 284 nM and the IC50 (IL-18BP inhibition of IFNγ, NK92) [58] was 961 nM.
A Kd [59] of 0.403 nM, a Kd [60] of 0.67 nM and an IC50 (read off the curve) [61] of 0.08 nM were found for “IL-18 WT (SEQ ID NO: 1) (from UniProt Q14116 37-193) (ligand)” in this work.
